In patent US12723255B2, “Herbicide tolerance genes and methods of use thereof” (priority 2014, dated 2026):
Values joined by “and” are separate entries in the source; they are usually repeats but may differ in a detail not shown here. Identical values can stand only once.

What was measured:
transgenic soy plants = test: soy green house tolerance to synthetic auxins; format: in vivo, soybean; details: for Average soy % crop injury for 4 reps, 2,4-D Amine / Average soy % crop injury for 4 reps, MCPA: 2X rate 1680 g ae/ha
F1 hybrid maize plants [1] = test: plant-based growth chamber assay for temperature-sensitive quizalofop-P tolerance; format: in vivo
Description: The finding that hybrid plants expressing the engineered proteins MON-HT55 or MON-HT51 were sensitive to quizalofop-P application when grown in field conditions of high temperature was confirmed using a plant-based assay. The plant-based assay was designed to test tolerance to quizalofop-P of F1 hybrids in the growth chamber prior to field testing. The assay was developed using F1 hybrids of plants containing maize events NK603 (U.S. Pat. No. 8,273,959)×MON89034 (U.S. Pat. No. 8,581,047) and F1 hybrids of plants containing MON-HT55×MON89034. F1 hybrid seed was germinated in a growth chamber for 1 week and then moved to one of three different growth chambers to acclimate for two days at day/night temperatures of 20° C./20° C., 28° C./20° C., and 38° C./30° C. prior to application of 2× (0.16 lb ai/acre) quizalofop-P. As expected, the plants not containing MON-HT55 at all temperature regimens were severely injured by 2× quizalofop-P application (FIG. 1B). […] (FIG. 1C). This confirmed that the plant-based assay could be used to screen proteins in plants in the growth chamber for temperature-sensitive activity.

F1 hybrid maize plants [2] = test: 2,4-D tolerance at elevated growth temperatures; format: in vivo; details: 4× 2,4-D amine; day/night 38° C./30° C.; ten days after treatment
Procedure: To test for 2,4-D tolerance at elevated growth temperatures, F1 hybrid plants were produced by crossing an R1 plant containing MON-HTI, MON-HT2, MON-HT3, MON-HT4, MON-HT7, or MON-HT55 with an inbred plant containing maize event MON89034. The F1 hybrid plants were grown in a greenhouse for one week at a minimum temperature of 20° C. and a maximum temperature of 28° C. with 50 to 80% humidity. After 1 week, the plants were moved to acclimate for three days at one of two different day and night temperature regimens: (1) both day and night temperatures set at 20° C. or (2) day temperature at 38° C. and night temperature at 30° C. At the end of the acclimation period, the plants were generally at V4 growth stage and were sprayed with 4× 2,4-D amine. Ten days after treatment the plants were scored for injury using an injury scale of 0 to 100 with “0” being no injury and “100” being a dead plant. When plants were acclimated at day/night temperatures of 20° C./20° C. prior to application of 4× 2,4-D amine, F1 plants containing MON-HT1, MON-HT2, MON-HT3, MON-HT4, MON-HT7, or MON-HT55 had injury rating averages of <10%, and the control plants had injury rating averages of <20% (FIG. 4D). […]

[3] = 2X rate 840 g ae/ha, Events 1-3 in columns, seven days after treatment
[4] = Events 1-3 in columns, seven days after treatment
[5] = Events 1-3 in columns, seven days after treatment, listed as MON-HTI

B1: MON-HT1: engineered oxygenase protein, amino acid sequence SEQ ID NO:14 (protein)
chain: MHAALTPLTNKYRFIDVQPLTGVLGAEITGVDLREPLDDSTWNEILDAFHTYQVIYFPGQAITNEQHIAFSRRFGPVDPVPILKSIEGYPEVQMIRREANESSRFIGDDWHTDSTFLDAPPAAVVMRAIEVPEYGGDTGFLSMYSAWETLSPTMQATIEGLNVVHSATKVFGSLYQATNWRFSNTSVKVMDVDAGDRETVHPLVVTHPVTGRRALYCNQVYCQKIQGMTDAESKSLLQFLYEHATKFDFTCRVRWKKDQVLVWDNLCTMHRAVPDYAGKFRYLTRTTVAGDKPSR
- Average soy % crop injury for 4 reps, fluroxypyr (transgenic soy plants; [3]): 96.3% and 93.8% and 97.5%
- Average soy % crop injury for 4 reps, triclopyr (transgenic soy plants; [3]): 81.3% and 90.0%
- Average soy % crop injury for 4 reps, 2,4-D Amine (transgenic soy plants; [4]): 4.5% and 6.5% and 5.3%
- Average soy % crop injury for 4 reps, MCPA (transgenic soy plants; [4]): 90.0% and 72.5%
- Average soy % crop injury for 4 reps, 2,4-D Amine (transgenic soy plants; [5]): less than 7%
- Average soy % crop injury for 4 reps, MCPA (transgenic soy plants; [5]): 72% and 90%
- soy crop injury, triclopyr or fluroxypyr, across all three events (transgenic soy plants; 2× rate 840 g ae/ha): 81-97%

B2: MON-HT55: engineered oxygenase protein, amino acid sequence SEQ ID NO:11 (protein)
chain: MHAALSPLSQRFERIAVQPLTGVLGAEITGVDLREPLDDSTWNEILDAFHTYQVIYFPGQAITNEQHIAFSRRFGPVDPVPLLKSIEGYPEVQMIRREANESGRVIGENWHTDSTFLDAPPAAVVMYAKEIPPYGGDTLFTSMYTAWETLSPTMQATIEGLNVVHSATRVFGSLYQAQNRRFSNTSVKVMDVDAGDRETVHPLVVTHPETGRKGLYVNQVYCQRIEGMSEKESEPLLSFLFAHATKPEFTCRVRWQEGDVLVWDNLCTQHYAVPDYAGKFRYLTRTTVGGVRPAR
- tolerance to 2× quizalofop-P application (F1 hybrid maize plants [1]; acclimated at day/night 20° C./20° C. or 28° C./20° C.): good tolerance
- tolerance to 2× quizalofop-P application (F1 hybrid maize plants [1]; acclimated at day/night 38° C./30° C.): significant sensitivity
- injury rating averages (F1 hybrid maize plants [2]): 50%
